Laboratory results published in FireProtDB (doi:10.1093/protein/gzw068).

B1: Y70F, Q93D82 (parent)
chain: MSTAIVTNVKHFGGMGSALRLSEAGHTVACHDESFKQKDELEAFAETYPQLKPMSEQEPAELIEAVTSAYGQVDVLVSNDIFAPEFQPIDKYAVEDYRGAVEALQIRPFALVNAVASQMKKRKSGHIIFITSATPFGPWKELSTYTSARAGACTLANALSKELGEYNIPVFAIGPNYLHSEDSPYFYPTEPWKTNPEHVAHVKKVTALQRLGTQKELGELVAFLASGSCDYLTGQVFWLAGGFPMIERWPGMPE

Variants of: B1
Settings: Rhizobium radiobacter; pH 7.7; Thermal; CD; Phosphate 5mM; structure 1PWX; whole UniProt chain shown

| Variant | Tm [°C] | change of melting temperature, mutant - wild type (higher = more stable) [°C] |
| --- | --- | --- |
| Y70F | 65.5 | 0.5 |
| A93N | 69 | 4 |
| A93K | 70.5 | 5.5 |
| A93T | 69.5 | 4.5 |
| T67Q | 63.5 | -1.5 |
| V94L | 63.5 | -1.5 |
| D230N | 62 | -3 |
| S160A | 64.5 | -0.5 |
| P253G | 64.5 | -0.5 |
| P253S | 62.5 | -2.5 |
| E85Y | 64.5 | -0.5 |
| E141Q | 56 | -9 |
| E56A | 65 | 0 |
| V77I | 64 | -1 |
| D39E | 65 | 0 |
| D39K | 66.5 | 1.5 |
| T144I | 57 | -8 |
| T154V | 62 | -3 |
| T154I | 62 | -3 |
| T154L | 58.5 | -6.5 |
| A69L | 64.5 | -0.5 |
| A69M | 62.5 | -2.5 |
| A69R | 65.5 | 0.5 |
| A69H | 64.5 | -0.5 |
| A69K | 63.5 | -1.5 |
| E58Q | 67.5 | 2.5 |

| Variant | Tm [°C] | change of melting temperature, mutant - wild type (higher = more stable) [°C] |
| --- | --- | --- |
| E58N | 65 | 0 |
| T134I | 63.5 | -1.5 |
| T134W | 64 | -1 |
| T134V | 68 | 3 |
| Y48F | 65.5 | 0.5 |
| C153V | 50.5 | -14.5 |
| C153L | 63 | -2 |
| C153I | 60 | -5 |
| C153H | 53.5 | -11.5 |
| C153N | 78.5 | 13.5 |
| D80V | 64 | -1 |
| D80E | 60 | -5 |
| V236I | 66.5 | 1.5 |
| C229A | 60.5 | -4.5 |
| P244A | 67 | 2 |
| Q37E | 65 | 0 |
| Q37D | 65 | 0 |
| V75I | 65 | 0 |
| E165P | 57.5 | -7.5 |
| E165A | 65.5 | 0.5 |
| K193L | 65 | 0 |
| E190T | 66.5 | 1.5 |
| E190L | 65.5 | 0.5 |
| S228R | 64.5 | -0.5 |
| S228K | 64.5 | -0.5 |
| E42Q | 64 | -1 |

| Variant | Tm [°C] | change of melting temperature, mutant - wild type (higher = more stable) [°C] |
| --- | --- | --- |
| E42M | 66.5 | 1.5 |
| T194Q | 61 | -4 |
| D182F | 63 | -2 |
| K91Q | 61 | -4 |
| F82W | 59 | -6 |
| H126V | 64.5 | -0.5 |
| H126Y | 63.5 | -1.5 |
| R107Q | 65 | 0 |
| N157W | 56 | -9 |
| N157R | 60 | -5 |
| N157F | 64 | -1 |
| A200Y | 62.5 | -2.5 |
| T213N | 61.5 | -3.5 |
| T213D | 62 | -3 |
| A83N | 63 | -2 |
| A83Q | 65.5 | 0.5 |
| A83M | 65.5 | 0.5 |
| R98I | 64.5 | -0.5 |
| R98L | 65 | 0 |
| S55P | 65 | 0 |
| N195V | 59 | -6 |
| N195H | 64.5 | -0.5 |
| Q209H | 58 | -7 |
| T47H | 63.5 | -1.5 |
| T47A | 63 | -2 |
| T47S | 64.5 | -0.5 |

| Variant | Tm [°C] | change of melting temperature, mutant - wild type (higher = more stable) [°C] |
| --- | --- | --- |
| T47K | 66 | 1 |
| E197K | 67.5 | 2.5 |
| A45L | 64 | -1 |
| A45K | 65.5 | 0.5 |
| E219N | 63.5 | -1.5 |
| L111W | 57 | -8 |
| G99R | 55.5 | -9.5 |
| G99H | 65 | 0 |
| G99A | 66 | 1 |
| G99D | 65 | 0 |
| E247Y | 63 | -2 |
| E247P | 66 | 1 |
| K161F | 64 | -1 |
| S117K | 65 | 0 |
| S117A | 63.5 | -1.5 |
| N113H | 63 | -2 |
| N113Q | 61.5 | -3.5 |
| H198M | 55 | -10 |
| H198Y | 62.5 | -2.5 |
| A60K | 61 | -4 |
| A60L | 63 | -2 |
| A60Y | 64.5 | -0.5 |
| A60R | 66.5 | 1.5 |
| A158V | 71 | 6 |
| E64A | 66 | 1 |
| E64Q | 66 | 1 |

| Variant | Tm [°C] | change of melting temperature, mutant - wild type (higher = more stable) [°C] |
| --- | --- | --- |
| E64K | 65 | 0 |
| E61R | 64.5 | -0.5 |
| E61K | 68.5 | 3.5 |
| E61Q | 66.5 | 1.5 |
| S68N | 65.5 | 0.5 |
| S68Q | 63 | -2 |
| S68R | 66.5 | 1.5 |
| S68K | 65 | 0 |
| V199K | 66.5 | 1.5 |
| A103Y | 60.5 | -4.5 |
| A103Q | 61 | -4 |
| D96H | 56 | -9 |
| M54F | 63.5 | -1.5 |
| V205L | 63.5 | -1.5 |
| F86W | 64.5 | -0.5 |
| F136W | 60.5 | -4.5 |
| S143V | 59.5 | -5.5 |
| K123H | 65.5 | 0.5 |
| Q87L | 62.5 | -2.5 |
| Q87R | 68.5 | 3.5 |
| K140P | 54.5 | -10.5 |
| K140S | 62.5 | -2.5 |
